From US20060153807A1, “Vector-mediated gene regulation in midbrain dopamine neurons” (priority 2005, published 2006) come the findings set out here.

Numbering of substitutions follows the chain as printed. Names and notes keep the numbering of the source.

One data set concerns the target T1, citrate synthase (CS) (Sus scrofa, UniProt P00889).
T1 construct: purchased Sigma
T1 sequence (P00889 28-464): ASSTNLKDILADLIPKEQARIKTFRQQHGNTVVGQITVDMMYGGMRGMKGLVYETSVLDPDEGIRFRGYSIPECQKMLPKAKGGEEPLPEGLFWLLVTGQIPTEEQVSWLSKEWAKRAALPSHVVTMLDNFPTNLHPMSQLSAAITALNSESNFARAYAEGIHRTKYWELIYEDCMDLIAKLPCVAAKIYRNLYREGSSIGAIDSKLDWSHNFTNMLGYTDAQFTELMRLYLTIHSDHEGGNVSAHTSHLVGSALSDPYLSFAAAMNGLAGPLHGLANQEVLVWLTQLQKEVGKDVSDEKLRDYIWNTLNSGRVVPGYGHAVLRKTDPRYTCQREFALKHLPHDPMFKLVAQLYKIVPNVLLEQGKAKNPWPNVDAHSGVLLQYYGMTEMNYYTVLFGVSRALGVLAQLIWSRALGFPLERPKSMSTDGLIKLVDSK
The data set is described as follows: suppression of heat-induced aggregation of citrate synthase (chaperone assay). In kind it is biochemical. The conditions noted are these: for redox regulation: chaperone activity in the CS aggregation assay after DTT: preincubation with 0.5 mM DTT for 10 min at 4° C.; for chaperone activity: suppression of heat-induced CS aggregation: 0.8 μM CS, 43° C., DJ-1 0.5-4.0 μM. On the procedure:
(§1) FIG. 22 illustrates that DJ-1 is a redox-dependent molecular chaperone. (A) Aggregation of CS was monitored at 43° C. after addition of either 0.8 μM CS alone (black), or along with 8.0 μM RNase A (purple), 0.5 μM DJ-1 (aqua), 2.0 μM DJ-1 (blue), 4.0 μM DJ-1 (red), or 2.0 μM Hsp27 (green). (B) Aggregation of 0.8 μM CS after 30 min at 4° C. […] (C) Aggregation of insulin (26 μM) B chains induced by 20 mM DTT at 25° C. Insulin alone (black) or in the presence of 4.0 μM RNase A (purple), 0.5 μM DJ-1 (aqua), 2.0 μM DJ-1 (blue), 4.0 μM DJ-1 (red), or 2.0 μM Hsp27 (green). (D) CS thermal aggregation (unfilled bar) is suppressed by 4 μM DJ-1 (black bar), but chaperone activity is abrogated upon incubation of DJ-1 with 0.5 mM DTT for 10 min at 4° C. (gray bar). Further treatment of DTT-reduced DJ-1 with 10 mM H2O2 for 10 min at 4° C. leads to reactivation of CS suppression (hatched bar).
To test the redox regulation of DJ-1, the inventors assayed chaperone activity in the CS aggregation assay in the presence or absence of the reducing agent DTT. […] (FIG. 22D). […] To further test whether redox regulation might govern DJ-1 chaperone activity, reactivation studies using reduced DJ-1 were performed. DTT-reduced DJ-1 was incubated with H2O2 (10 mM in aggregation buffer for 10 min at 4° C. followed by dialysis against aggregation buffer for 2 h), and subsequently chaperone activity was measured in the CS thermal aggregation assay. […] This was not an indirect effect of residual H2O2 on CS aggregation, as H2O2 treatment of CS increased aggregation (unpublished data).
(§2) Aggregation assays. CS aggregation was performed in 40 mM HEPES (pH 7.8), 20 mM potassium hydroxinde, 50 mM potassium chloride, and 10 mM ammonium sulfate, and monitored in a thermostat-controlled fluorescence spectrophotometer with excitation and emission wavelengths at 500 nm and slit widths at 2.5 nm. Insulin aggregation was performed as described (Giasson et al. 2000). CS, insulin, RNase A, and GST were obtained from Sigma; human Hsp27 was obtained from Stressgen.

In the next data set the test system is insulin. The data set is described as follows: aggregation suppression of reduced insulin (DTT-induced B chain aggregation). In kind it is biochemical. As to conditions: 20 mM DTT. On the procedure: as §1, §2
The target in another data set is αSyn (Homo sapiens, UniProt P37840). Kind of data set: αSyn protofibril formation assay in vitro. In kind it is biochemical. The conditions noted are these: 200 μM αSyn, 100 μM test protein (molar ratio 1:2), 2 h at 55° C.
The test system of data set [1] is glutathione S-transferase (GST). The conditions noted are these: GST 0.4 μM, test protein 2 μM.
Description: DJ-1 chaperone activity was quantified in the suppression of heat-induced aggregation of citrate synthase (CS) and glutathione S-transferase (GST), two well-characterized protein chaperone assays. These proteins lose their native conformation and undergo aggregation during incubation at 43° C. and 60° C., respectively.
The next data set relates to DJ-1-deficient ES cells. The data set is described as follows: rescue of DJ-1-deficient ES cells from H2O2 toxicity, MTT assay. The conditions noted are these: transient transfection of expression plasmid, 10 μM H2O2 for 15 h, vs vector alone. On the technique in general: Tetrazolium dyes change colour on reduction, which living cells bring about.
The subject of data set [2] is Undifferentiated ES cells. The data set is described as follows: rescue from Q333P mutant NFL toxicity in undifferentiated ES cells, MTT reduction assay. In kind it is cell-based. As to conditions: 72 h after transfection. On the procedure:
FIG. 30 depicts the additional studies of DJ-1 mutations. […] Cells from FIG. 4M were quantified via ToPro3 nuclear staining and are expressed as number of cells per field from ten independent fields in each of three wells. […] GFP positive transfected cells from FIG. 5A-5L were quantified and are expressed as number of transfected cells per field from ten independent fields in each of three wells. […] After 72 h, cells were assayed by MTT reduction assay (which detects reduction of 3-(4,5-dimethylthiazol-2-yl)-2,5-diphenyltetrazolium bromide by metabolic enzymes) (Martinat et al. 2004). […] Undifferentiated ES cells were transfected with Q333P mutant NFL along with WT human DJ-1, C53A mutant DJ-1, or vector control. After 72 h, cells were assayed by MTT reduction assay (Martinat et al. 2004). […] Cells were differentiated for 72 h and lysed to produce Triton X-100-soluble and -insoluble fractions. Lysates were exposed to Western blotting with an antibody against transfected human NFL.

Description for DJ-1-deficient ES cells: 48 h after transfection, cells were exposed to 10 μM H2O2 for 15 h and then assayed by MTT reduction. […] Data are shown as the mean±SEM and were analyzed by ANOVA with Fisher's post-hoc test.
(C) DJ-1-deficient ES cells were transiently transfected with vector alone, WT DJ-1, or DJ-1 cysteine mutants, and exposed to 10 μM H2O2 for 15 h followed by MTT assay. […] Data are shown as the mean±SEM and were analyzed by ANOVA with Fisher's post-hoc test. * p<0.05.
ES cells plated in 96-well format (2.3×10^4 cells/well) were treated for 15 hours with H2O2 in ES media deficient in β-mercaptoethanol (Abeliovich et al. 2000). Cell viability (as a percent of untreated control) was determined by MTT assay in triplicate (Fezoui et al. 2000).
The inventors further investigated the activity of the cysteine-mutant forms of human DJ-1 in vivo in the complementation of DJ-1-deficient ES cells.
Description for αSyn: The analysis of DJ-1 chaperone function to a candidate DJ-1 substrate, αSyn (FIG. 23) was extended.
αSyn protofibril and fibril formation assays were performed essentially as described (Uversky et al.). Briefly, protofibrils were formed by incubation of 200 μM WT synuclein with 100 μM DJ-1 or control chaperone protein in PBS for 2 h at 55° C. Samples were mixed with SDS loading buffer and analyzed by SDS-PAGE and Western blotting using αSyn LB509 antibody (Zymed). Quantitation of high molecular weight αSyn was performed using NIH Image J. Integrated pixel intensity of high molecular weight synuclein for each sample was normalized to monomeric synuclein intensity.

Regarding “Hsp27: well-described small cytoplasmic chaperone, human Hsp27, obtained from Stressgen; positive control [reference compound]”, the “redox regulation: chaperone activity in the CS aggregation assay after DTT” value with citrate synthase (CS) was “did not modify suppression of CS aggregation”. The “chaperone activity: suppression of reduced insulin aggregation” value in the data set with insulin is reported as “effectively inhibited the aggregation of insulin”. The “inhibition of αSyn protofibril formation” value with αSyn is given as “failed to inhibit the generation of αSyn protofibrils”. For the same molecule, the “suppression of GST thermal aggregation” value in data set [1] is “suppressed”.

B1: RNase A: negative control protein, obtained from Sigma (protein, UniProt P61823 27-150, looked up)
Ribonuclease pancreatic: KETAAAKFERQHMDSSTSAASSSNYCNQMMKSRNLTKDRCKPVNTFVHESLADVQAVCSQKNVACKNGQTNCYQSYSTMSITDCRETGSSKYPNCAYKTTQANKHIIVACEGNPYVPVHFDASV
For the molecule B1, the “chaperone activity: suppression of heat-induced CS aggregation” value with citrate synthase (CS) is reported as “failed to demonstrate chaperone activity”. Also, the “chaperone activity: suppression of reduced insulin aggregation” value with insulin is “neither DJ-1 nor the negative control protein RNase A displayed chaperone activity”.

B2: C106A: DJ-1 cysteine-to-alanine mutant at cysteine 106 (protein, UniProt Q99497 1-189, looked up, variant C106A)
chain: MASKRALVILAKGAEEMETVIPVDVMRRAGIKVTVAGLAGKDPVQCSRDVVICPDASLEDAKKEGPYDVVVLPGGNLGAQNLSESAAVKEILKEQENRKGLIAAIAAGPTALLAHEIGFGSKVTTHPLAKDKMMNGGHYTYSENRVEKDGLILTSRGPGTSFEFALAIVEALNGKEVAAQVKAPLVLKD
Consider B2, for which, in the data set with citrate synthase (CS), the “chaperone activity: suppression of heat-induced CS aggregation” value is reported as “does not alter the basal activity” and the “redox regulation: chaperone activity in the CS aggregation assay after DTT” value was “unaffected”. In addition, the “viability of H2O2-treated DJ-1 knockout cells after transfection” value in the data set with DJ-1-deficient ES cells was “robustly rescued DJ-1 knockout cells from H2O2 toxicity”.

B3: C53A: DJ-1 cysteine-to-alanine mutant at cysteine 53 (protein, UniProt Q99497 1-189, looked up, variant C53A)
chain: B2 chain with C53A, A106C
Regarding B3, the “chaperone activity: suppression of heat-induced CS aggregation” value in the data set with citrate synthase (CS) is reported as “completely abrogates chaperone activity”. The “rescue from Q333P mutant NFL toxicity” value in data set [2] is recorded as “unable to rescue cells from Q333P mutant NFL toxicity”. The “viability of H2O2-treated DJ-1 knockout cells after transfection” value in the data set with DJ-1-deficient ES cells was “failed to protect from H2O2 toxicity”.
